Assays:
human Sema 3A protein = molecular target: T1, human Sema 3A protein (human, UniProt Q14563 21-771, limits assumed); experiment: competitive ELISA on plate-coated human Sema 3A; competitor biotin-labelled avian-mouse chimeric antibody (clone No. 4-2) at 60 ng/mL
T1 construct: also called Human Sema 3A antigen; human-derived Sema 3A protein
T1 sequence (looked up): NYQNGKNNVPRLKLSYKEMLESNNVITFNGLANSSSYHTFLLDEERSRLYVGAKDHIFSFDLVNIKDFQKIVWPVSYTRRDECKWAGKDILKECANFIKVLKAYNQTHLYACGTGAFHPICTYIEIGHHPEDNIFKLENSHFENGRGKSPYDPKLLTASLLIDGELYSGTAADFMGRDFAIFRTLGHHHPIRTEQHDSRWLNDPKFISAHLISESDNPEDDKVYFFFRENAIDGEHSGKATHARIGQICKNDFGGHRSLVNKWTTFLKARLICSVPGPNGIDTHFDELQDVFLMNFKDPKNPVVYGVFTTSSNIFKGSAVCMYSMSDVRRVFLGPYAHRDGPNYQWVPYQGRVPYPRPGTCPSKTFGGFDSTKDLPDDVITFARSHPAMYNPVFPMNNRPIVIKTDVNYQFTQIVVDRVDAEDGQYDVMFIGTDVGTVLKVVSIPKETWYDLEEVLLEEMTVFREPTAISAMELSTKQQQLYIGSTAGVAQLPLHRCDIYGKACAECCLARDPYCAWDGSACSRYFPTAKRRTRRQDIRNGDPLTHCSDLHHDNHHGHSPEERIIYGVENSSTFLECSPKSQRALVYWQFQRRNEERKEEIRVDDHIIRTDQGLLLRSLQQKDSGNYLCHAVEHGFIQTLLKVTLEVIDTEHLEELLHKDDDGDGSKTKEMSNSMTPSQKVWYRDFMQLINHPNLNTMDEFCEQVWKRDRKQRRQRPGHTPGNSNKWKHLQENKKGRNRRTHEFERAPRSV
Description: The obtained clone No. 4-2-derived avian-mouse chimeric antibody in Example 1, the obtained humanized antibodies in Example 2 (Humanized-1 and Humanized-2) and avian-human chimeric antibody were subjected to competitive ELISA to evaluate affinity to the antigen. CL18M (+) avian-mouse chimeric antibody, which served as a negative control, was also measured for affinity to the antigen. Particular measurement conditions were as follows.
Firstly, 2.5 μg/mL of antigen (mouse and human Sema 3A protein) was dispensed into a 384 Well MaxiSorp Plate (Nunc) and reacted overnight at 4° C. in order to coat the plate with the antigen. The next day, the plate was washed three times with 50 μL/well of washing solution (PBS containing 0.05% Tween 20), to which was added 25 μL/well of blocking solution (PBS containing 1% bovine serum albumin) and the mixture was reacted for 30 minutes. Each of humanized antibodies (Humanized-1 and Humanized-2), avian-human chimeric antibody and avian-mouse chimeric antibody was subjected to serial doubling dilution, to which was mixed anti-Sema 3A avian-mouse chimeric antibody labeled with biotin to the final concentration of 60 ng/mL, and the mixture was reacted with the antigen solid phase plate which was washed three times with 50 μL/well of washing solution for one hour. The plate was washed five times with 50 μL/well of washing solution, to which was added 20 μL/well of diluent in which streptavidin labeled with horseradish peroxidase (HRP) (Thermo Fisher Scientific K.K.) was diluted 10000 times with PBS buffer and the mixture was reacted for 30 minutes. The plate was washed five times with 50 μL/well of washing solution, to which was added 20 μL/well of TMB+(Dako) and the mixture was chromogenically reacted for 20 minutes. Subsequently, to the each well was added 20 μL, of 1M sulfuric acid to quench the reaction. The absorbance was measured at 450 nm using Infinite M1000 (Tecan Trading AG).

[1] = molecular target: bovine serum albumin (BSA) (bovine, UniProt P02769 25-607); experiment: antigen solid phase ELISA: coated BSA, anti-mouse IgG2A-HRP, A450
Chain of bovine serum albumin (BSA) (P02769 25-607 limits assumed): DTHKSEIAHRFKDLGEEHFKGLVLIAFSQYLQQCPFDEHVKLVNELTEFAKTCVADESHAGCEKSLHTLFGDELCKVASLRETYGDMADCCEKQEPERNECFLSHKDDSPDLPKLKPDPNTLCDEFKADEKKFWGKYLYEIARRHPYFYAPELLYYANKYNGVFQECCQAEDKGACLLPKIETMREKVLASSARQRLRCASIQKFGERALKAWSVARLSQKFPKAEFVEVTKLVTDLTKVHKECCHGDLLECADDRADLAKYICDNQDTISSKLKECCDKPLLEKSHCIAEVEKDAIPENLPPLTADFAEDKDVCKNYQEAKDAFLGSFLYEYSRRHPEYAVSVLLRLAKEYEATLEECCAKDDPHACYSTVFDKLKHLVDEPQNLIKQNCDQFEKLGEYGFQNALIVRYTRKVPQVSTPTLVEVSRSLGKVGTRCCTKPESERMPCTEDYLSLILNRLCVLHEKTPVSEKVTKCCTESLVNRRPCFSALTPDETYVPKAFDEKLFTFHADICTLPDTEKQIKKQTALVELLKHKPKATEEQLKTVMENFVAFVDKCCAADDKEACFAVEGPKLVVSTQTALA
Description: The obtained avian-mouse chimeric antibody in Example 1 and the obtained humanized antibodies (Humanized-1 and Humanized-2) and avian-human chimeric antibody in Example 2 were measured for antigenic specificity by antigen solid phase ELISA with PBS buffer. The obtained avian-mouse chimeric antibody in Example 1, which was labeled with biotin, was also measured for antigenic specificity. CL18M (+) avian-mouse chimeric antibody, which served as a negative control, was also measured for antigenic specificity. Particular measurement conditions were as follows.
Firstly, 2.5 μg/mL of antigen (mouse and human Sema 3A protein) was dispensed into a 384 Well MaxiSorp Plate (Nunc) and reacted overnight at 4° C. in order to coat the plate with the antigen. Otherwise, ovalbumin (OVA) and bovine serum albumin (BSA) were immobilized in the plate as negative controls in similar manner in order to examine specificity of antibodies. After reaction, the plate was washed three times with 50 μL/well of washing solution (PBS containing 0.05% Tween 20), to which was added 25 μL/well of blocking solution (PBS buffer containing 1% bovine serum albumin), and the mixture was reacted for 30 minutes. […] The absorbance was measured at 450 nm using Infinite M1000 (Tecan Trading AG).

B1: Anti-Sema 3A avian-mouse chimeric antibody (clone No. 4-2-derived) (antibody, mouse IgG2a)
heavy: AVTLDESGGGLQTPGGALSLVCKASGFTFSSYPMGWVRQAPGKGLEWVAGIDDDGDSDTRYAPAVKGRATISRDNGQSTVRLQLNNLRAEDTGTYYCAKHTGIGANSAGSIDAWGHGTEVIVSSAKTTAPSVYPLAPVCGDTTGSSVTLGCLVKGYFPEPVTLTWNSGSLSSGVHTFPAVLQSDLYTLSSSVTVTSSTWPSQSITCNVAHPASSTKVDKKIEPRGPTIKPCPPCKCPAPNLLGGPSVFIFPPKIKDVLMISLSPIVTCVVVDVSEDDPDVQISWFVNNVEVHTAQTQTHREDYNSTLRVVSALPIQHQDWMSGKEFKCKVNNKDLPAPIERTISKPKGSVRAPQVYVLPPPEEEMTKKQVTLTCMVTDFMPEDIYVEWTNNGKTELNYKNTEPVLDSDGSYFMYSKLRVEKKNWVERNSYSCSVVHEGLHNHHTTKSFSRTPGK
light: ALTQPASVSANLGGTVKITCSGGGSYTGSYYYGWYQQKSPGSALVTMIYYNNKRPSDIPSRFSGSLSGSTNTLTITGVRADDEAVYFCGSADNSGDAFGAGTTLTVLGQPKSSPSVTLFPPSSEELETNKATLVCTITDFYPGVVTVDWKVDGTPVTQGMETTQPSKQSNNKYMASSYLTLTARAWERHSSYSCQVTHEGHTVEKSLSRADCS
notes: Avian variable regions of clone No. 4-2 with mouse IgG2a heavy and mouse lambda light constant regions; also called anti-Sema 3A avian-mouse chimeric antibody (IgG)
- IC50 (human Sema 3A protein): 0.074 µg/mL
- binding result [1]: no binding (tested: about 2 µg/mL)

From patent publication US20150368327A1 (YOKOHAMA CITY UNIVERSITY, published 2015)
